Assay results from patent EP4778937A1.
Changes are numbered by the printed parent chain. Values belong to the molecule of their own block, whether it stands above or below them.

Tests used:
[1] = target: CD112 on MDA-MB-231-Luc-GFP and MDA-MB-231-CD155(-)-Luc-GFP cells (human) (UniProt Q92692); assay: flow cytometry of MDA-MB-231-Luc-GFP cells stained with the antibody, control incubated with PBS
[2] = target: CD112 (labelled CD112 molecule / CD112 antigen of Example 2) (UniProt Q92692); assay: flow cytometry, labelled CD112 on CAR-CHO cells; MFI of CD112-positive cells / MFI of TIGIT-positive cells
[3] = target: T1, CD155 (labelled CD155 molecule / CD155 antigen of Example 2) (UniProt P15151); assay: flow cytometry, labelled CD155 on CAR-CHO cells; MFI of CD155-positive cells / MFI of TIGIT-positive cells
T1 sequence (labelled for flow cytometry, label not stated, looked up): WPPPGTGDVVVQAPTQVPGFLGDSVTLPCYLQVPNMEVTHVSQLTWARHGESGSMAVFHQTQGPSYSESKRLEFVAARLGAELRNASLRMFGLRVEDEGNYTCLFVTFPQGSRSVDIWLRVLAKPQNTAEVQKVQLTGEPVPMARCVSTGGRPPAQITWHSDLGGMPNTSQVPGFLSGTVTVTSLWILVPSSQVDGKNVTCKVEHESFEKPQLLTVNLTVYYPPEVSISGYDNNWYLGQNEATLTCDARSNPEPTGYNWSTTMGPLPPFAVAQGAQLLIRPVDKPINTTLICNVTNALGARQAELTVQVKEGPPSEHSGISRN

MFI, fold over the control group [1]: 4 fold
Molecule: CD112 (Nectin2) Monoclonal Antibody (R2.525) PE

relative MFI of CD112 (CD112/TIGIT) [2]: 0.13
relative MFI of CD155 (CD155/TIGIT) [3]: 1.34
B1: CAR6 (TIGIT mutant peptide Mut6-CD28TM-28Z) (receptor)
chain: MMTGTIETTGNISAEKGGSIILQCHLSSTTAQVTQVNWEQQDQLLAIWNADLGWHISPSFKDRVAPGPGLGLTLQSLTVNDTGEYFCIYHTYPDGTYTGRIFLEVLESSVAEHGARFQIPFWVLVVVGGVLACYSLLVTVAFIIFWVRSKRSRGGHSDYMNMTPRRPGPTRKHYQPYAPPRDFAAYRSRVKFSRSADAPAYKQGQNQLYNELNLGRREEYDVLDKRRGRDPEMGGKPRRKNPQEGLYNELQKDKMAEAYSEIGMKGERRRGKGHDGLYQGLSTATKDTYDALHMQALPPR

relative MFI of CD112 (CD112/TIGIT) [2]: 0.16
relative MFI of CD155 (CD155/TIGIT) [3]: 1.03
B2: CAR30 (wild-type TIGIT polypeptide-CD28TM-28Z) (receptor)
chain: B1 chain with W48C
